According to US10919943B2, “Mutant proteins enabling agrochemical control of plant gene expression” (The Regents of the University of California, priority 2016, dated 2021):

T1: PYR1 (Arabidopsis thaliana, UniProt O49686)
T1 construct: expressed in transfected cells; host or cells: S. cerevisiae strain Y190
T1 sequence (O49686 1-191): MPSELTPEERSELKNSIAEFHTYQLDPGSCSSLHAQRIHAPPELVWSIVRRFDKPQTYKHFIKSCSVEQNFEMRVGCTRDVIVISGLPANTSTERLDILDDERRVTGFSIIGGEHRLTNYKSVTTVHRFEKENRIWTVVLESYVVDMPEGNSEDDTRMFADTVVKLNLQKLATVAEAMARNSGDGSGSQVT


Each molecule was assayed against T1, PYR1 (assay: Yeast two hybrid of pACT-HAB1 site saturation mutants with pBD-PYR1 on 10 μM ABA, β-galactosidase staining). Settings: S. cerevisiae Y190, 10 μM ABA; dead = lack of detectable staining in comparison to wild type control.
Assay type: cell-based
Set-up: key: x: Mutations in HAB1 that disrupt HAB1 interaction with PYR1
Method in brief: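 Read-out is β-galactosidase staining of chloroform-lysed Y190 colonies grown 2 days at 30 °C on SD (-Leu,-Trp) plus 10 μM ABA. Each pACT-HAB1 single-substitution mutant (N-terminally truncated by three residues) was paired with pBD-PYR1; absence of detectable staining relative to wild type scored as dead.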

Molecule | Mutations in HAB1 that disrupt HAB1 interaction with PYR1
H245D: HAB1 mutant (protein, UniProt Q9CAJ0 23-511, looked up, variant H245D) Protein phosphatase 2C 16: SPVEITQLKNVTDAADLLSDSENQSFCNGGTECTMEDVSELEEVGEQDLLKTLSDTRSGSSNVFDEDDVLSVVEDNSAVISEGLLVVDAGSELSLSNTAMEIDNGRVLATAIIVGESSIEQVPTAEVLIAGVNQDTNTSEVVIRLPDENSNHLVKGRSVYELDCIPLWGTVSIQGNRSEMEDAFAVSPHFLKLPIKMLMGDHEGMSPSLTHLTGHFFGVYDGDGGHKVADYCRDRLHFALAEEIERIKDELCKRNTGEGRQVQWDKVFTSCFLTVDGEIEGKIGRAVVGSSDKVLEAVASETVGSTAVVALVCSSHIVVSNCGDSRAVLFRGKEAMPLSVDHKPDREDEYARIENAGGKVIQWQGARVFGVLAMSRSIGDRYLKPYVIPEPEVTFMPRSREDECLILASDGLWDVMNNQEVCEIARRRILMWHKKNGAPPLAERGKGIDPACQAAADYLSMLALQKGSKDNISIIVIDLKAQRKFKTRT | x
H245E: HAB1 mutant (protein, UniProt Q9CAJ0 23-511, looked up, variant H245E) Protein phosphatase 2C 16: SPVEITQLKNVTDAADLLSDSENQSFCNGGTECTMEDVSELEEVGEQDLLKTLSDTRSGSSNVFDEDDVLSVVEDNSAVISEGLLVVDAGSELSLSNTAMEIDNGRVLATAIIVGESSIEQVPTAEVLIAGVNQDTNTSEVVIRLPDENSNHLVKGRSVYELDCIPLWGTVSIQGNRSEMEDAFAVSPHFLKLPIKMLMGDHEGMSPSLTHLTGHFFGVYDGEGGHKVADYCRDRLHFALAEEIERIKDELCKRNTGEGRQVQWDKVFTSCFLTVDGEIEGKIGRAVVGSSDKVLEAVASETVGSTAVVALVCSSHIVVSNCGDSRAVLFRGKEAMPLSVDHKPDREDEYARIENAGGKVIQWQGARVFGVLAMSRSIGDRYLKPYVIPEPEVTFMPRSREDECLILASDGLWDVMNNQEVCEIARRRILMWHKKNGAPPLAERGKGIDPACQAAADYLSMLALQKGSKDNISIIVIDLKAQRKFKTRT | x
H245C: HAB1 mutant (protein, UniProt Q9CAJ0 23-511, looked up, variant H245C) Protein phosphatase 2C 16: SPVEITQLKNVTDAADLLSDSENQSFCNGGTECTMEDVSELEEVGEQDLLKTLSDTRSGSSNVFDEDDVLSVVEDNSAVISEGLLVVDAGSELSLSNTAMEIDNGRVLATAIIVGESSIEQVPTAEVLIAGVNQDTNTSEVVIRLPDENSNHLVKGRSVYELDCIPLWGTVSIQGNRSEMEDAFAVSPHFLKLPIKMLMGDHEGMSPSLTHLTGHFFGVYDGCGGHKVADYCRDRLHFALAEEIERIKDELCKRNTGEGRQVQWDKVFTSCFLTVDGEIEGKIGRAVVGSSDKVLEAVASETVGSTAVVALVCSSHIVVSNCGDSRAVLFRGKEAMPLSVDHKPDREDEYARIENAGGKVIQWQGARVFGVLAMSRSIGDRYLKPYVIPEPEVTFMPRSREDECLILASDGLWDVMNNQEVCEIARRRILMWHKKNGAPPLAERGKGIDPACQAAADYLSMLALQKGSKDNISIIVIDLKAQRKFKTRT | x
H245F: HAB1 mutant (protein, UniProt Q9CAJ0 23-511, looked up, variant H245F) Protein phosphatase 2C 16: SPVEITQLKNVTDAADLLSDSENQSFCNGGTECTMEDVSELEEVGEQDLLKTLSDTRSGSSNVFDEDDVLSVVEDNSAVISEGLLVVDAGSELSLSNTAMEIDNGRVLATAIIVGESSIEQVPTAEVLIAGVNQDTNTSEVVIRLPDENSNHLVKGRSVYELDCIPLWGTVSIQGNRSEMEDAFAVSPHFLKLPIKMLMGDHEGMSPSLTHLTGHFFGVYDGFGGHKVADYCRDRLHFALAEEIERIKDELCKRNTGEGRQVQWDKVFTSCFLTVDGEIEGKIGRAVVGSSDKVLEAVASETVGSTAVVALVCSSHIVVSNCGDSRAVLFRGKEAMPLSVDHKPDREDEYARIENAGGKVIQWQGARVFGVLAMSRSIGDRYLKPYVIPEPEVTFMPRSREDECLILASDGLWDVMNNQEVCEIARRRILMWHKKNGAPPLAERGKGIDPACQAAADYLSMLALQKGSKDNISIIVIDLKAQRKFKTRT | x

The remaining lines, values ahead:

Mutations in HAB1 that disrupt HAB1 interaction with PYR1 | Molecule
x | H245V: HAB1 mutant (protein, UniProt Q9CAJ0 23-511, looked up, variant H245V) Protein phosphatase 2C 16: SPVEITQLKNVTDAADLLSDSENQSFCNGGTECTMEDVSELEEVGEQDLLKTLSDTRSGSSNVFDEDDVLSVVEDNSAVISEGLLVVDAGSELSLSNTAMEIDNGRVLATAIIVGESSIEQVPTAEVLIAGVNQDTNTSEVVIRLPDENSNHLVKGRSVYELDCIPLWGTVSIQGNRSEMEDAFAVSPHFLKLPIKMLMGDHEGMSPSLTHLTGHFFGVYDGVGGHKVADYCRDRLHFALAEEIERIKDELCKRNTGEGRQVQWDKVFTSCFLTVDGEIEGKIGRAVVGSSDKVLEAVASETVGSTAVVALVCSSHIVVSNCGDSRAVLFRGKEAMPLSVDHKPDREDEYARIENAGGKVIQWQGARVFGVLAMSRSIGDRYLKPYVIPEPEVTFMPRSREDECLILASDGLWDVMNNQEVCEIARRRILMWHKKNGAPPLAERGKGIDPACQAAADYLSMLALQKGSKDNISIIVIDLKAQRKFKTRT
x | H245Y: HAB1 mutant (protein, UniProt Q9CAJ0 23-511, looked up, variant H245Y) Protein phosphatase 2C 16: SPVEITQLKNVTDAADLLSDSENQSFCNGGTECTMEDVSELEEVGEQDLLKTLSDTRSGSSNVFDEDDVLSVVEDNSAVISEGLLVVDAGSELSLSNTAMEIDNGRVLATAIIVGESSIEQVPTAEVLIAGVNQDTNTSEVVIRLPDENSNHLVKGRSVYELDCIPLWGTVSIQGNRSEMEDAFAVSPHFLKLPIKMLMGDHEGMSPSLTHLTGHFFGVYDGYGGHKVADYCRDRLHFALAEEIERIKDELCKRNTGEGRQVQWDKVFTSCFLTVDGEIEGKIGRAVVGSSDKVLEAVASETVGSTAVVALVCSSHIVVSNCGDSRAVLFRGKEAMPLSVDHKPDREDEYARIENAGGKVIQWQGARVFGVLAMSRSIGDRYLKPYVIPEPEVTFMPRSREDECLILASDGLWDVMNNQEVCEIARRRILMWHKKNGAPPLAERGKGIDPACQAAADYLSMLALQKGSKDNISIIVIDLKAQRKFKTRT
x | H245I: HAB1 mutant (protein, UniProt Q9CAJ0 23-511, looked up, variant H245I) Protein phosphatase 2C 16: SPVEITQLKNVTDAADLLSDSENQSFCNGGTECTMEDVSELEEVGEQDLLKTLSDTRSGSSNVFDEDDVLSVVEDNSAVISEGLLVVDAGSELSLSNTAMEIDNGRVLATAIIVGESSIEQVPTAEVLIAGVNQDTNTSEVVIRLPDENSNHLVKGRSVYELDCIPLWGTVSIQGNRSEMEDAFAVSPHFLKLPIKMLMGDHEGMSPSLTHLTGHFFGVYDGIGGHKVADYCRDRLHFALAEEIERIKDELCKRNTGEGRQVQWDKVFTSCFLTVDGEIEGKIGRAVVGSSDKVLEAVASETVGSTAVVALVCSSHIVVSNCGDSRAVLFRGKEAMPLSVDHKPDREDEYARIENAGGKVIQWQGARVFGVLAMSRSIGDRYLKPYVIPEPEVTFMPRSREDECLILASDGLWDVMNNQEVCEIARRRILMWHKKNGAPPLAERGKGIDPACQAAADYLSMLALQKGSKDNISIIVIDLKAQRKFKTRT
x | H245G: HAB1 mutant (protein, UniProt Q9CAJ0 23-511, looked up, variant H245G) Protein phosphatase 2C 16: SPVEITQLKNVTDAADLLSDSENQSFCNGGTECTMEDVSELEEVGEQDLLKTLSDTRSGSSNVFDEDDVLSVVEDNSAVISEGLLVVDAGSELSLSNTAMEIDNGRVLATAIIVGESSIEQVPTAEVLIAGVNQDTNTSEVVIRLPDENSNHLVKGRSVYELDCIPLWGTVSIQGNRSEMEDAFAVSPHFLKLPIKMLMGDHEGMSPSLTHLTGHFFGVYDGGGGHKVADYCRDRLHFALAEEIERIKDELCKRNTGEGRQVQWDKVFTSCFLTVDGEIEGKIGRAVVGSSDKVLEAVASETVGSTAVVALVCSSHIVVSNCGDSRAVLFRGKEAMPLSVDHKPDREDEYARIENAGGKVIQWQGARVFGVLAMSRSIGDRYLKPYVIPEPEVTFMPRSREDECLILASDGLWDVMNNQEVCEIARRRILMWHKKNGAPPLAERGKGIDPACQAAADYLSMLALQKGSKDNISIIVIDLKAQRKFKTRT
x | H245W: HAB1 mutant (protein, UniProt Q9CAJ0 23-511, looked up, variant H245W) Protein phosphatase 2C 16: SPVEITQLKNVTDAADLLSDSENQSFCNGGTECTMEDVSELEEVGEQDLLKTLSDTRSGSSNVFDEDDVLSVVEDNSAVISEGLLVVDAGSELSLSNTAMEIDNGRVLATAIIVGESSIEQVPTAEVLIAGVNQDTNTSEVVIRLPDENSNHLVKGRSVYELDCIPLWGTVSIQGNRSEMEDAFAVSPHFLKLPIKMLMGDHEGMSPSLTHLTGHFFGVYDGWGGHKVADYCRDRLHFALAEEIERIKDELCKRNTGEGRQVQWDKVFTSCFLTVDGEIEGKIGRAVVGSSDKVLEAVASETVGSTAVVALVCSSHIVVSNCGDSRAVLFRGKEAMPLSVDHKPDREDEYARIENAGGKVIQWQGARVFGVLAMSRSIGDRYLKPYVIPEPEVTFMPRSREDECLILASDGLWDVMNNQEVCEIARRRILMWHKKNGAPPLAERGKGIDPACQAAADYLSMLALQKGSKDNISIIVIDLKAQRKFKTRT
x | H245K: HAB1 mutant (protein, UniProt Q9CAJ0 23-511, looked up, variant H245K) Protein phosphatase 2C 16: SPVEITQLKNVTDAADLLSDSENQSFCNGGTECTMEDVSELEEVGEQDLLKTLSDTRSGSSNVFDEDDVLSVVEDNSAVISEGLLVVDAGSELSLSNTAMEIDNGRVLATAIIVGESSIEQVPTAEVLIAGVNQDTNTSEVVIRLPDENSNHLVKGRSVYELDCIPLWGTVSIQGNRSEMEDAFAVSPHFLKLPIKMLMGDHEGMSPSLTHLTGHFFGVYDGKGGHKVADYCRDRLHFALAEEIERIKDELCKRNTGEGRQVQWDKVFTSCFLTVDGEIEGKIGRAVVGSSDKVLEAVASETVGSTAVVALVCSSHIVVSNCGDSRAVLFRGKEAMPLSVDHKPDREDEYARIENAGGKVIQWQGARVFGVLAMSRSIGDRYLKPYVIPEPEVTFMPRSREDECLILASDGLWDVMNNQEVCEIARRRILMWHKKNGAPPLAERGKGIDPACQAAADYLSMLALQKGSKDNISIIVIDLKAQRKFKTRT
